# Test results as given in patent US20130130379A1 (published 2013).
# Tests used:
# Human CXCR4 [1] = molecular target: T1, Human CXCR4 (human, UniProt P61073-2 2-356); experiment: membrane binding experiments, displacement of 125I-CXCL12
# T1 construct: also called hCXCR4
# [2] = molecular target: parathyroid hormone receptor (PTHR1); experiment: Biacore (SPR); PTHR + CaCl2; the table names no quantity; lower end of the range
# [3] = molecular target: parathyroid hormone receptor (PTHR1); experiment: Biacore (SPR); PTHR + CaCl2; the table names no quantity; upper end of the range
# [4] = molecular target: parathyroid hormone receptor (PTHR1); experiment: Biacore (SPR); PTHR - CaCl2; the table names no quantity; lower end of the range
# [5] = molecular target: parathyroid hormone receptor (PTHR1); experiment: Biacore (SPR); PTHR - CaCl2; the table names no quantity; upper end of the range
# [6] = molecular target: Cannabinoid Receptor 1 (CB1R); experiment: Biacore (SPR); the table names no quantity, heading 'Binding of clones against CB1R'
# [7] = molecular target: parathyroid hormone receptor (PTHR1); experiment: Biacore (SPR); PTHR + CaCl2; the table names no quantity
# [8] = molecular target: parathyroid hormone receptor (PTHR1); experiment: Biacore (SPR); PTHR - CaCl2; the table names no quantity
# [9] = molecular target: parathyroid hormone receptor (PTHR1); experiment: Biacore (SPR); PTHR Fos12; the table names no quantity
# Human CXCR7 = molecular target: T2, Human CXCR7 (human, UniProt P25106 1-362); experiment: phage ELISA and FACS
# T2 construct: also called hCXCR7
# Human CXCR4 [10] = molecular target: T1, Human CXCR4; experiment: displacement of [125I]-CXCL12, membranes from HEK293T cells transiently expressing CXCR4; n=4
# Sequence of Cannabinoid Receptor 1 (CB1R) (P47746 whole entry): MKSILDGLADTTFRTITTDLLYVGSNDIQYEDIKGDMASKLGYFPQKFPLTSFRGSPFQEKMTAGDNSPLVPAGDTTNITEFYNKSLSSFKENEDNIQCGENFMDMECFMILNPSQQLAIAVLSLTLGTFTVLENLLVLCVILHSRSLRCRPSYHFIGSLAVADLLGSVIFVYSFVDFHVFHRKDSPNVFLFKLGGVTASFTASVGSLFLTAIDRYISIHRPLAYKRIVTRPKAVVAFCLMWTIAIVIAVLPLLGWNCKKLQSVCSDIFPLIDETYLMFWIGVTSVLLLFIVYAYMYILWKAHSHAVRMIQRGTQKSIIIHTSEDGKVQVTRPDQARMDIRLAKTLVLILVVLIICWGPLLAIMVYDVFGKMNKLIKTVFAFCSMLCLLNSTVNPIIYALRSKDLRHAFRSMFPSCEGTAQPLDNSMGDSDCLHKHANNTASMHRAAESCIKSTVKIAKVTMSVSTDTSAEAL
# Sequence of parathyroid hormone receptor (PTHR1) (Q03431 27-593): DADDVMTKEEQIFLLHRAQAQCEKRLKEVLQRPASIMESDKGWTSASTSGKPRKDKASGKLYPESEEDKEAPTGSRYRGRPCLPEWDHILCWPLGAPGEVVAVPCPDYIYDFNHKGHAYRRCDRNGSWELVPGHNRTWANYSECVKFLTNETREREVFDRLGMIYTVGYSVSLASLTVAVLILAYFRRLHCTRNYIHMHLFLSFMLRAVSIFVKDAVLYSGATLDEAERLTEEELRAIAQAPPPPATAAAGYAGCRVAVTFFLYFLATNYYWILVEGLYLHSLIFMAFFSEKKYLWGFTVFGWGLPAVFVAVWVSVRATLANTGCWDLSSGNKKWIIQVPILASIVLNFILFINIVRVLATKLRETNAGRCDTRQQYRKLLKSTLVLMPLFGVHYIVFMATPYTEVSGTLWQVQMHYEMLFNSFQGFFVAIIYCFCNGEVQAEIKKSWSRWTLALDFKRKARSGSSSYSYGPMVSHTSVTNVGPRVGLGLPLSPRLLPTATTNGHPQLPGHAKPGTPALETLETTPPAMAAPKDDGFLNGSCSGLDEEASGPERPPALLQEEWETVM
# T2 sequence (P25106 whole entry): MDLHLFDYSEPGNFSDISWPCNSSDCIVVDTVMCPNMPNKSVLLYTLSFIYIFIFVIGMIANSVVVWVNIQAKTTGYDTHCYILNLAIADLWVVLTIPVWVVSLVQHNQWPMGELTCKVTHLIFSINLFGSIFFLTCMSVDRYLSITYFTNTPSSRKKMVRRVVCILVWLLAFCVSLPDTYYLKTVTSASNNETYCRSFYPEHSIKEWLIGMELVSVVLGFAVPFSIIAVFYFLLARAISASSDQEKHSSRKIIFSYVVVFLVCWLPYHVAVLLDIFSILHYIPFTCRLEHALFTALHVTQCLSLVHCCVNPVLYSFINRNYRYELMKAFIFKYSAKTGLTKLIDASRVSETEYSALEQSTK
# T1 sequence (P61073 other isoform, or with tags, fused parts or gaps): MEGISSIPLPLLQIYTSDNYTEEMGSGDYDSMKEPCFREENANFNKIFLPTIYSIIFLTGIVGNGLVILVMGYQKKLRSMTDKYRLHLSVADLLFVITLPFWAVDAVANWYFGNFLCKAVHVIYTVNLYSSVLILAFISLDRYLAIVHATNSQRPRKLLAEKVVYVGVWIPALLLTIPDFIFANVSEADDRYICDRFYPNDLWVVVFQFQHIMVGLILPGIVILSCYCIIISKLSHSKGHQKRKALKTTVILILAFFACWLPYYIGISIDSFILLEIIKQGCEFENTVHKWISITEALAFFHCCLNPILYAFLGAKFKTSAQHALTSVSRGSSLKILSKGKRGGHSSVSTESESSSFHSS
molecule,measurement,setting,value
mAb 12G5 (antibody),displacement of radiolabeled 125I-CXCL12,Human CXCR4 [1],50%
PTH (1-34) (ligand) (from UniProt P01270 32-65) (peptide),Kd,[2],0.2 to 16 nM
same,Kd,[3],0.2 to 16 nM
same,Kd,[4],4 to 23 nM
same,Kd,[5],4 to 23 nM
LGPMP6_B7 (VHH) VHH: EVQLVESGGGLVQAGGSLRLSCAASGRTLRNYDMGWFRQAPGKEREFVATIRWSTSETYYADSVKGRFTISSDNAKNTVDLQMNSLTPGDTGVYYCAARSVYSYDYNYWGQGTQVTVSS,Kd,[6],12 nM
LGPMP6_H4 (VHH) VHH: EVQLVESGGGLVQAGGSLRLACAASGSIFSFNAMGWYRQAPGKQRELLAVITRDGITKYADSVKGRFTISRDNAKNTMYLQMNSLKPEDTAVYYCHTGLPTGRGSHSDYWGQGTQVTVSS,Kd,[6],36 nM
LGPMP5_G11 (VHH) VHH: EVQLVKSGGGLVQAGGSLRLSCAASGRTLSNYDMGWFRQAPGKEREFVATIRWSTGETYYTDSVKGRFTISKDNTKNTVDLQMNSLTPEDTAVYYCASRSVYSYEYNYWGQGTQVTVSS,Kd,[6],12 nM
PMPLG22-A3 (VHH) VHH: EVQLVESGGGLVQAGGSLRLSCAASGNIFANNIMGWYRQPPGKEREFVAHVSHDGDSMYAVSVKGRFAISRKDATNLYLQMNSLKPEDTAIYFCRLLNIPTQGRMEGFWGQGTQVTVSS,Kd,[7],9 nM
same,Kd,[8],17 nM
PMPLG26-F2 (VHH) VHH: EVQLVESGGGLVQAGGSLRLSCVASGFSFDDYAIGWFRQAPGQDREPLACITSGGTRNYNPSVMARFRIDRDNSVKTVYLQINTLKPEDTAVYYCSTELDRQGGSAHECREYDTWGQGTQVTVSS,Kd,[9],360 nM
same,Kd,[7],70 nM
PMPLG23-A3 (VHH) VHH: EVQLVESGGGLVQAGGSLRLSCAASGLTFSNYAMGWFRQAPGKEREWVASINWSGGSTYYEDSVEGRFTISRDNAKNTVNLQMNSLKPEDTAVYYCAAKRGHYSREYDYWGQGTQVTVSS,Kd,[8],22 nM
PMPLG26-A6 (VHH) VHH: EVQLVESGGGLVQAGGSLRLSCAASRSRSSFDDMGWYRQAPGKQREFVGGITLGGSTIYADSVKGRFTISMDSARNTGYLQMNSLKPEDTAVYYCNAALDGYSGSSWGQGTQVTVSS,Kd,[8],17 nM
"08A05 (VHH, Group 2 anti-CXCR7 Nanobody; also called Nanobody 08A05) VHH: EVQLVESGGGLVQAGDSLRLSCAASGLTFSNYDMGWFRQAPGKEREFVGASWWSGGAPYYSDSVKGRFTISRDNAKNTVYLQANSLRPEDTAVYYCAAKRLRSFASGGSYDYWGQGTQVTVSS",binding result,Human CXCR7,binds
"08A10 (VHH, Group 2 anti-CXCR7 Nanobody; also called Nanobody 08A10) VHH: EVQLVESGGGLVQAGGSLRLSCAASGSIFSIAAMGWYRQATGKQRELVATITDGGTTTYADSVKGRVTISRDRSANTVYLAMNNLKPDDTAVYYCYAYLRYTSRVPGDNYWGQGTQVTVSS",binding result,Human CXCR7,binds
"01C10 (VHH, Group 1 anti-CXCR7 Nanobody; also called Nanobody 01C10) VHH: EVQLVESGGGLVQTGASLRLSCAASGRTFSNYAMGWFRQAPGKERERVAAITPRAFTTYYADSVKGRFTISRDNAKNTAYLQMVSLKPEDTAVYYCAAQLVGSGSNLGRQESYAYWGQGTQVTVSS",binding result,Human CXCR7,binds
"238D4-20GS-238D4 (VHH, also called L13) EVQLMESGGGLVQAGGSLRLSCAASGRTFNNYAMGWFRRAPGKEREFVAAITRSGVRSGVSAIYGDSVKDRFTISRDNAKNTLYLQMNSLKPEDTAVYTCAASAIGSGALRRFEYDYSGQGTQVTVSSGGGGSGGGGSGGGGSGGGGSEVQLMESGGGLVQAGGSLRLSCAASGRTFNNYAMGWFRRAPGKEREFVAAITRSGVRSGVSAIYGDSVKDRFTISRDNAKNTLYLQMNSLKPEDTAVYTCAASAIGSGALRRFEYDYSGQGTQVTVSS",Ki,Human CXCR4 [10],1 nM
